The source of these data is paper PMC13245405, “Stable inheritance of the Streptomyces linear plasmid SCP1 by dual ParABS partition systems” (Nucleic Acids Research, 2026).

Series [1] deals with T1, ParB1-His6 WT (Streptomyces coelicolor A3(2), plasmid SCP1) (UniProt Q9AD11).
T1 sequence: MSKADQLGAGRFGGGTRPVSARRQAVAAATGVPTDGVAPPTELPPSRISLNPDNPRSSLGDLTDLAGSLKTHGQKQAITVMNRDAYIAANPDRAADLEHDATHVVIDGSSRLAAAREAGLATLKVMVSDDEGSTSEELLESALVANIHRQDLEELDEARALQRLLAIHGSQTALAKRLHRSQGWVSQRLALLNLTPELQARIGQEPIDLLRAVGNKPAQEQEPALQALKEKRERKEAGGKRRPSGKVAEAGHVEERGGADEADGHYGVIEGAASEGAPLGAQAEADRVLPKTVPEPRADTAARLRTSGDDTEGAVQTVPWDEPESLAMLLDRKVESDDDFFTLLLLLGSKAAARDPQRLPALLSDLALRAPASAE
The series is described as follows: BLI. To be noted: 1 mM CTP; BLI: 100 mM Tris-HCl pH 8, 100 mM NaCl, 1 mM MgCl2, 0.005% Tween 20, 25 C; ParB 0.0625-2 uM (50 bp) or 1 uM (190 bp).

The target in series [2] is T2, ParB2 (Streptomyces coelicolor, UniProt Q9ACT0).
T2 construct: ParB2-His6, C-terminal His6 kept, pET21b, codon-optimized synthetic gene, E. coli Rosetta (BL21 DE3) pLysS; dimer
The series is described as follows: isothermal titration calorimetry. It counts as binding. Background: ITC needs no label: the signal is the heat of the interaction.

Series [3] has as its target T3, ParB1 (Streptomyces coelicolor, UniProt Q9AD11).
T3 construct: ParB1-His6, C-terminal His6 kept, pET21b, codon-optimized synthetic gene, E. coli Rosetta (BL21 DE3) pLysS; dimer
The experiment in a line: isothermal titration calorimetry. It counts as binding.

The target in series [4] is T4, ParB2-His6 WT (Streptomyces coelicolor A3(2), plasmid SCP1) (UniProt Q9ACT0).
T4 sequence: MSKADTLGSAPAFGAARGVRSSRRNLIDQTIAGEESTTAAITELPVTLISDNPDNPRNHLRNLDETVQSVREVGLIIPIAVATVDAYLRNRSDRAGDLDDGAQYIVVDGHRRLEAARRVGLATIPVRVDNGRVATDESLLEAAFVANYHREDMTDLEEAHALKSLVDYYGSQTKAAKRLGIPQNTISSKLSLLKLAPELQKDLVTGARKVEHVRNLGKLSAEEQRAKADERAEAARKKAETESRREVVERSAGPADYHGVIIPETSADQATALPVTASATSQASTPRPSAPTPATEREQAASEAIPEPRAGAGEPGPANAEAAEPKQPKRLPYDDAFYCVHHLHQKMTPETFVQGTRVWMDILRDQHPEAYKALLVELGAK
The experiment in a line: BLI. To be noted: 1 mM CTP; BLI: 100 mM Tris-HCl pH 8, 100 mM NaCl, 1 mM MgCl2, 0.005% Tween 20, 25 C; ParB 0.0625-2 uM (50 bp) or 1 uM (190 bp).

Series [5] addresses T2, ParB2. The experiment in a line: differential scanning fluorimetry (Tycho). The format is binding. To be noted: 1 mM CTP, 4 µM ParB2 dimer, with 2 µM parS2 DNA; 100 mM Tris-HCl, 250 mM NaCl, 1 mM MgCl2, 5% glycerol, pH 8.0. A general note: In DSF a fluorescence change marks the thermal transition of the protein.
In series [6] the target is T5, ParB2 (Streptomyces coelicolor, UniProt Q9ACT0, N55A).
T5 construct: ParB2-His6, C-terminal His6 kept, pET21b, codon-optimized synthetic gene, E. coli Rosetta (BL21 DE3) pLysS; dimer
T5 sequence (Q9ACT0 entry or part of it N55A): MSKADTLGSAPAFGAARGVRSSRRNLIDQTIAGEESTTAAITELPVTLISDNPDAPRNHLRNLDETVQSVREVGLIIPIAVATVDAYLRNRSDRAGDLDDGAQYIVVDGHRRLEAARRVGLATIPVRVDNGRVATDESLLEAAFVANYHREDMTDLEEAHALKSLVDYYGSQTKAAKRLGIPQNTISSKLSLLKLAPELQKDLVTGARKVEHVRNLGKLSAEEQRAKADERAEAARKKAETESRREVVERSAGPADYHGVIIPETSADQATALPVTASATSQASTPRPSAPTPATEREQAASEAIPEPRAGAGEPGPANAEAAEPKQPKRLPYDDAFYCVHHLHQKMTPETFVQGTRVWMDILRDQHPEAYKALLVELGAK
The experiment in a line: CTP binding test in supplement. To be noted: 1 mM CTP with parS2 if DSF as in methods.

Series [7] deals with T6, ParB1 (Streptomyces coelicolor, UniProt Q9AD11, N54A).
T6 construct: ParB1-His6, C-terminal His6 kept, pET21b, codon-optimized synthetic gene, E. coli Rosetta (BL21 DE3) pLysS; dimer
T6 sequence (Q9AD11 entry or part of it N54A): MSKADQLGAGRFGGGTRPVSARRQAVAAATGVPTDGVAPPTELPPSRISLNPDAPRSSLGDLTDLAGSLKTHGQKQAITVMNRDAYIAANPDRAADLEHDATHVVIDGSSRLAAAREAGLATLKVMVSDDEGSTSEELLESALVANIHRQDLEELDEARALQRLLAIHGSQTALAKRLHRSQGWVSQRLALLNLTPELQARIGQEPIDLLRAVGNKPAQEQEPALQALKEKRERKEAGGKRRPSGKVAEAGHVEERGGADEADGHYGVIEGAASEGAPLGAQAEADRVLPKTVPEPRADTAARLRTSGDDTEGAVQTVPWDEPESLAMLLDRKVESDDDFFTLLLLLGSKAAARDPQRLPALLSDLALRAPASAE
The experiment in a line: CTP binding test in supplement. To be noted: 1 mM CTP with parS1 if DSF as in methods.

For series [8], the target named is T7, ParB1 (Streptomyces coelicolor, UniProt Q9AD11, S109A).
T7 construct: ParB1-His6, C-terminal His6 kept, pET21b, codon-optimized synthetic gene, E. coli Rosetta (BL21 DE3) pLysS; dimer
T7 sequence (Q9AD11 entry or part of it S109A): as the sequence (Q9AD11 entry or part of it N54A) above, with A54N, S109A counted along it
The experiment in a line: CTP binding test in supplement. To be noted: 1 mM CTP with parS1 if DSF as in methods.

Series [9] concerns the target T8, ParB1 (Streptomyces coelicolor, UniProt Q9AD11, S110A).
T8 construct: ParB1-His6, C-terminal His6 kept, pET21b, codon-optimized synthetic gene, E. coli Rosetta (BL21 DE3) pLysS; dimer
The series is described as follows: CTP binding test in supplement. To be noted: 1 mM CTP with parS1 if DSF as in methods.

In series [10] the target is T9, ParB2 (Streptomyces coelicolor, UniProt Q9ACT0, R57A).
T9 construct: ParB2-His6, C-terminal His6 kept, pET21b, codon-optimized synthetic gene, E. coli Rosetta (BL21 DE3) pLysS; dimer
T9 sequence (Q9ACT0 entry or part of it R57A): as the sequence (Q9ACT0 entry or part of it N55A) above, with A55N, R57A counted along it
The experiment in a line: CTP binding test in supplement. To be noted: 1 mM CTP with parS2 if DSF as in methods.

In another series the target is T10, ParB1-His6 WT (Streptomyces coelicolor A3(2), plasmid …, UniProt Q9AD11 1-375).
T10 sequence: T1 sequence
The experiment in a line: BLI; no CTP; BLI: 100 mM Tris-HCl pH 8, 100 mM NaCl, 1 mM MgCl2, 0.005% Tween 20, 25 C; ParB 0.0625-2 uM (50 bp) or 1 uM (190 bp). To be noted: protein: recombinant, tags: C-terminal His6, chain copies: 2, label: 5' biotin on strand 1, blunt.

Another series has as its target T11, ParB2-His6 WT (Streptomyces coelicolor A3(2), plasmid …, UniProt Q9ACT0 1-381).
T11 sequence: T4 sequence
Described as above. To be noted: protein: recombinant; tags: C-terminal His6; chain copies: 2; label: 5' biotin on strand 1; blunt.

The next series has as its target T12, His6-ScParB WT (Streptomyces coelicolor, UniProt Q9S6U1 1-328).
T12 sequence: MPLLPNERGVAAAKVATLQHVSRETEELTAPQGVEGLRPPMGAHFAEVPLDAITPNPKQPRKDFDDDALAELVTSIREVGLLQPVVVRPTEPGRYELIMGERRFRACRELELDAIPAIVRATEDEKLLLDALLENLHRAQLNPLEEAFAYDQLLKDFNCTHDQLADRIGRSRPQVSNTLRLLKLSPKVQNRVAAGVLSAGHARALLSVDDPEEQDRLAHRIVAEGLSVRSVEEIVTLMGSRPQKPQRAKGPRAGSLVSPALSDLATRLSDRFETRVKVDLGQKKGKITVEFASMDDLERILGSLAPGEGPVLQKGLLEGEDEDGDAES
Described as above. To be noted: protein: recombinant, tags: N-terminal His6, chain copies: 2, label: 5' biotin on strand 1, blunt.

Where [11] appears, read: printed strands give one G:G mismatch at site centre.

T8 sequence (Q9AD11 entry or part of it S110A): as the sequence (Q9AD11 entry or part of it N54A) above, with A54N, S110A counted along it

Turning to parS1 190-bp closed loop, the binding signal (fold BLI signal vs no CTP) in series [1] is 4.

As for `Nc1ccn([C@@H]2O[C@H](COP(=O)(O)OP(=O)(O)OP(O)(O)=S)[C@@H](O)[C@H]2O)c(=O)n1` [CTPγS], the Kd at ParB2 [2] is 12.5 ± 5.05 µM; on ParB1 [3], 28.2 ± 5.9 µM.

In series [4], parS2 190-bp closed loop returned a binding signal (fold BLI signal vs no CTP) of 3.

Regarding `Nc1ccn([C@@H]2O[C@H](COP(=O)(O)OP(=O)(O)OP(=O)(O)O)[C@@H](O)[C@H]2O)c(=O)n1` [CTP], the “differential scanning fluorimetry (Tycho)” value on ParB2 [5] was “only when ParB1 or ParB2 was incubated with both their cognate parS site and CTP”. In addition, the “CTP binding test in supplement” value at ParB2 [6] was “ParB1 N54A, S109A, and S110A or ParB2 N55A and R57A still bound CTP”; on ParB1 [7] it was “ParB1 N54A, S109A, and S110A or ParB2 N55A and R57A still bound CTP”; at ParB1 [8], “ParB1 N54A, S109A, and S110A or ParB2 N55A and R57A still bound CTP”; on ParB1 [9], “ParB1 N54A, S109A, and S110A or ParB2 N55A and R57A still bound CTP”; at ParB2 [10], “ParB1 N54A, S109A, and S110A or ParB2 N55A and R57A still bound CTP”. For the same molecule, at ParB1 [3], binding was characterised by a dissociation constant (Kd) of 31.6 ± 17.8 µM.

B1: ScparS 50 bp (dsDNA)
DNA 1: TCGGGGATGGTGTTTCGCGTTTCACGTGAAACAACCCCAGCGTACCGGGC
DNA 2: GCCCGGTACGCTGGGGTTGTTTCACGTGAAACGCGAAACACCATCCCCGA
With B1, the binding result with ParB1-His6 WT and in the series with ParB2-His6 WT was “no binding” each time. The Kd in the series with His6-ScParB WT was 0.331 ± 0.064 µM.

B2: parS2 50 bp (dsDNA)
DNA 1: AGCAGGCCCCGCCGATTATCACGGCGTGATAATCCCGGAGACGTCCGCTG
DNA 2: CAGCGGACGTCTCCGGGATTATCACGCCGTGATAATCGGCGGGGCCTGCT
For the molecule B2, the Kd in the series with ParB2-His6 WT worked out at 0.377 ± 0.055 µM. The binding result in the series with His6-ScParB WT is “no binding”.

B3: scrambled parS 50 bp (dsDNA)
DNA 1: GGCCCTGGGTATTCCCTCCGGGACTCGAAGGACGAACGACGCTCGCACAT
DNA 2: ATGTGCGAGCGTCGTTCGTCCTTCGAGTCCCGGAGGGAATACCCAGGGCC
For B3, the binding result in the series with ParB1-His6 WT, in the series with ParB2-His6 WT and with His6-ScParB WT was “no binding” throughout.

B4: parS1 50 bp (dsDNA)
DNA 1: CTTCGGACGCGGCACCCTCTATTACGGCGTAATGGCCGTCTGCCTCATCC
DNA 2: GGATGAGGCAGACGGCCATTACGGCGTAATAGAGGGTGCCGCGTCCGAAG
As to B4, in the series with ParB1-His6 WT (setting [11]), the Kd was determined as 0.386 ± 0.042 µM. Also, the binding result with His6-ScParB WT (setting [11]) was “no binding”.

A word on the Kd: it is a measure of binding affinity in units of concentration.
